Assay results taken from PMC9482650, “Quantitative fragmentomics allow affinity mapping of interactomes” (Nature Communications, 2022).

T1: GRIP1_1, Q9Y3R0
T1 sequence (Q9Y3R0 48-146, limits assumed, looked up): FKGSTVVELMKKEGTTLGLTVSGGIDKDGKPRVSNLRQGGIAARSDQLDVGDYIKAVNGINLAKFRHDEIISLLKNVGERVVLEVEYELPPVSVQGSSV

T2: LNX2_4, Q8N448
T2 sequence (Q8N448 595-690, limits assumed, looked up): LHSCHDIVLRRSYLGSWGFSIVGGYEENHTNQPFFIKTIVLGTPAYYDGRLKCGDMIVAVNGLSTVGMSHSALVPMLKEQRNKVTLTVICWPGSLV

T3: MPDZ_11, O75970
T3 sequence (O75970 1720-1817, limits assumed, looked up): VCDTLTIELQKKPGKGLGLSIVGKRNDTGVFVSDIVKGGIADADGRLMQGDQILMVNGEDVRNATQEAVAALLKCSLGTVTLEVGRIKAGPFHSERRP

T4: MPDZ_13, O75970
T4 sequence (O75970 1982-2070, limits assumed, looked up): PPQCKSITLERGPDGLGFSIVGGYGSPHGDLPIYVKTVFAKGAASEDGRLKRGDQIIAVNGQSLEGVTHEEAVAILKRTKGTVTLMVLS

T5: PARD6B, Q9BYG5
T5 sequence (Q9BYG5 152-260, limits assumed, looked up): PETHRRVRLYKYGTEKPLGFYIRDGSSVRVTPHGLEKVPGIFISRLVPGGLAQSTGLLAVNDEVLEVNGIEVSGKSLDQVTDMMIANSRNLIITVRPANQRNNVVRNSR

T6: PDZD2_4, O15018
T6 sequence (O15018 723-823, limits assumed, looked up): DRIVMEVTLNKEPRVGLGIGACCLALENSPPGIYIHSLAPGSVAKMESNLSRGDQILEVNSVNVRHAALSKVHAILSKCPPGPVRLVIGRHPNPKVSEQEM

T7: SHANK3, Q9BYB0
T7 sequence (Q9BYB0 641-750, limits assumed, looked up): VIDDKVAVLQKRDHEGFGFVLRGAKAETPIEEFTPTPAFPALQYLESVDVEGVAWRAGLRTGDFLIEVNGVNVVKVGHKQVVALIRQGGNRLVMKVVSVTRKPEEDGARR

T8: SHROOM3, Q8TF72
T8 sequence (Q8TF72 20-120, limits assumed, looked up): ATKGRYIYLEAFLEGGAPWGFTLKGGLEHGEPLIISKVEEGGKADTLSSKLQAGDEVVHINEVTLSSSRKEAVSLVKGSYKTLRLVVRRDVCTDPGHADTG

T9: SHROOM4, Q9ULL8
T9 sequence (Q9ULL8 5-102, limits assumed, looked up): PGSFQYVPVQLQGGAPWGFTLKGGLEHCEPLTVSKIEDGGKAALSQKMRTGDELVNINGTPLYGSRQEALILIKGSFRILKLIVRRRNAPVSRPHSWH

T10: SIPA1L3, O60292
T10 sequence (O60292 961-1052, limits assumed, looked up): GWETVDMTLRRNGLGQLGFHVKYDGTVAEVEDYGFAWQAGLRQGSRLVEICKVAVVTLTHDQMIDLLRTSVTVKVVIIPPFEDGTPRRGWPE

T11: SNTB2, Q13425
T11 sequence (Q13425 110-208, limits assumed, looked up): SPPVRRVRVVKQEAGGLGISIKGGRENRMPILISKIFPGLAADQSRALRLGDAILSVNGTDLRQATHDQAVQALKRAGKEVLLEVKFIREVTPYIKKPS

T12: TJP3_2, O95049
T12 sequence (O95049 190-282, limits assumed, looked up): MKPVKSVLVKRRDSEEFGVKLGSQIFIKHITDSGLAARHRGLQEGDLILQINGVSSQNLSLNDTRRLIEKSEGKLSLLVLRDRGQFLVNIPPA

T13: USH1C_2, Q9Y6N9
T13 sequence (Q9Y6N9 206-303, limits assumed, looked up): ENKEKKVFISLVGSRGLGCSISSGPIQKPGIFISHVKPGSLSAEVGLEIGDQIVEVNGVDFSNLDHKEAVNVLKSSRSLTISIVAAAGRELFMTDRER


Columns and labels:
Test in all cases: holdup assay
Set-up in all cases: key: below the threshold = too weak to quantify, mostly under pKd 3.1 to 4
Details in all cases: plain residues with an end cap or a label only (N-terminal biotin on a linker: ttds)
CNKSR3, Q6P9H4 = molecular target: CNKSR3, Q6P9H4
Chain of CNKSR3, Q6P9H4 (Q6P9H4 203-303): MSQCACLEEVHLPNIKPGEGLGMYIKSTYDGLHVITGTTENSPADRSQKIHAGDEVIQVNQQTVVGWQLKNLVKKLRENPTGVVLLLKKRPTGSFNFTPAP

GRIP1_1, Q9Y3R0 = molecular target: T1, GRIP1_1, Q9Y3R0
Inadl_7, Q8NI35 = molecular target: Inadl_7, Q8NI35
Chain of Inadl_7, Q8NI35 (Q8NI35 1219-1332): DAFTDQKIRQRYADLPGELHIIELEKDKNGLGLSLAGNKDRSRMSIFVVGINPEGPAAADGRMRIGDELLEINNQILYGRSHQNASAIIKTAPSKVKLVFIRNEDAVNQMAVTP

LNX2_4, Q8N448 = molecular target: T2, LNX2_4, Q8N448
MAGI1_3, Q96QZ7 = molecular target: MAGI1_3, Q96QZ7
Chain of MAGI1_3, Q96QZ7 (Q96QZ7 638-725): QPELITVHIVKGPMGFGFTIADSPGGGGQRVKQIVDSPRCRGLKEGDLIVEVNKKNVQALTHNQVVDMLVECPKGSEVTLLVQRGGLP

MAGI1_4, Q96QZ7 = molecular target: MAGI1_4, Q96QZ7
Chain of MAGI1_4, Q96QZ7 (Q96QZ7 other isoform, or with tags, fused parts or gaps): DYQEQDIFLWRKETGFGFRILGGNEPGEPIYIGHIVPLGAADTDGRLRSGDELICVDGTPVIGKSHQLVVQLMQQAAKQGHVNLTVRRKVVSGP

MAGI3_3, Q5TCQ9 = molecular target: MAGI3_3, Q5TCQ9
Chain of MAGI3_3, Q5TCQ9 (Q5TCQ9 572-655): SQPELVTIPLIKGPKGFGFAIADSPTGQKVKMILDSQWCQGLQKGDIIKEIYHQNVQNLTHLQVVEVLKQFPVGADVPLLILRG

MAGI3_5, Q5TCQ9 = molecular target: MAGI3_5, Q5TCQ9
Chain of MAGI3_5, Q5TCQ9 (Q5TCQ9 847-941): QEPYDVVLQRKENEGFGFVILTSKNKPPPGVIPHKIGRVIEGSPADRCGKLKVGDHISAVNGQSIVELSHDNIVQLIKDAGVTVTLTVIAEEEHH

MPDZ_11, O75970 = molecular target: T3, MPDZ_11, O75970
MPDZ_13, O75970 = molecular target: T4, MPDZ_13, O75970
PARD3B_3, Q8TEW8 = molecular target: PARD3B_3, Q8TEW8
Chain of PARD3B_3, Q8TEW8 (Q8TEW8 490-594): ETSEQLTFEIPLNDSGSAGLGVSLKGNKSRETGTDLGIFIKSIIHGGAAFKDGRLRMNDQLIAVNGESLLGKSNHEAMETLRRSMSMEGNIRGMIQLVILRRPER

PARD3_1, Q8TEW0 = molecular target: PARD3_1, Q8TEW0
Chain of PARD3_1, Q8TEW0 (Q8TEW0 264-372): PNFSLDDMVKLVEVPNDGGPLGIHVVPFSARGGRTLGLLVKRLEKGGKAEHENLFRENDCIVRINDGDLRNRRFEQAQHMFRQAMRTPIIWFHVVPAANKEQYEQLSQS

PARD6B, Q9BYG5 = molecular target: T5, PARD6B, Q9BYG5
PDZD2_4, O15018 = molecular target: T6, PDZD2_4, O15018
PDZRN4_2, Q6ZMN7 = molecular target: PDZRN4_2, Q6ZMN7
Chain of PDZRN4_2, Q6ZMN7 (Q6ZMN7 389-498): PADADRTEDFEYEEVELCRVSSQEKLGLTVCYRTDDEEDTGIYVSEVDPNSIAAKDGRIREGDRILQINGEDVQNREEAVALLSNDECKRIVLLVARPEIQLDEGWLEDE

RIMS2, Q9UQ26 = molecular target: RIMS2, Q9UQ26
Chain of RIMS2, Q9UQ26 (Q9UQ26 637-758): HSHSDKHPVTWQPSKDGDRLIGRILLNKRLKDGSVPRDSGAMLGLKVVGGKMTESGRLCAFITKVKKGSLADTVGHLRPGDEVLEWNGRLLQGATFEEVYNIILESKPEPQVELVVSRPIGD

SDCBP_1, O00560 = molecular target: SDCBP_1, O00560
Chain of SDCBP_1, O00560 (O00560 111-198): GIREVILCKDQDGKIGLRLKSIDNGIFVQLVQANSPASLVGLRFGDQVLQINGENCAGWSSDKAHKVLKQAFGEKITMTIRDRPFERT

SHANK3, Q9BYB0 = molecular target: T7, SHANK3, Q9BYB0
SHROOM3, Q8TF72 = molecular target: T8, SHROOM3, Q8TF72
SHROOM4, Q9ULL8 = molecular target: T9, SHROOM4, Q9ULL8
SIPA1L3, O60292 = molecular target: T10, SIPA1L3, O60292
SNTB2, Q13425 = molecular target: T11, SNTB2, Q13425
TJP3_2, O95049 = molecular target: T12, TJP3_2, O95049
USH1C_2, Q9Y6N9 = molecular target: T13, USH1C_2, Q9Y6N9

| Binder | pKd (CNKSR3, Q6P9H4) | pKd (GRIP1_1, Q9Y3R0) | pKd (Inadl_7, Q8NI35) | pKd (LNX2_4, Q8N448) | pKd (MAGI1_3, Q96QZ7) | pKd (MAGI1_4, Q96QZ7) | pKd (MAGI3_3, Q5TCQ9) | pKd (MAGI3_5, Q5TCQ9) | pKd (MPDZ_11, O75970) | pKd (MPDZ_13, O75970) | pKd (PARD3B_3, Q8TEW8) | pKd (PARD3_1, Q8TEW0) | pKd (PARD6B, Q9BYG5) | pKd (PDZD2_4, O15018) | pKd (PDZRN4_2, Q6ZMN7) | pKd (RIMS2, Q9UQ26) | pKd (SDCBP_1, O00560) | pKd (SHANK3, Q9BYB0) | pKd (SHROOM3, Q8TF72) | pKd (SHROOM4, Q9ULL8) | also measured |
| --- | --- | --- | --- | --- | --- | --- | --- | --- | --- | --- | --- | --- | --- | --- | --- | --- | --- | --- | --- | --- | --- |
| NYWPGKETQL [SLCO1C1, Q9NYB5] | below the threshold | below the threshold | below the threshold | 4.73 | below the threshold | below the threshold | below the threshold | below the threshold | below the threshold | below the threshold | below the threshold | below the threshold | below the threshold | below the threshold | below the threshold | below the threshold | below the threshold | below the threshold | below the threshold | below the threshold | pKd (SIPA1L3, O60292): below the threshold; pKd (SNTB2, Q13425): 5.13; pKd (TJP3_2, O95049): below the threshold; pKd (USH1C_2, Q9Y6N9): below the threshold |
| HIVEALETDV [PBK, Q96KB5] | below the threshold | below the threshold | 4.4 | below the threshold | 4.43 | 4.34 | 4.33 | below the threshold | below the threshold | below the threshold | below the threshold | below the threshold | below the threshold | below the threshold | below the threshold | below the threshold | below the threshold | below the threshold | below the threshold | below the threshold | pKd (SIPA1L3, O60292): below the threshold; pKd (SNTB2, Q13425): 4.87; pKd (TJP3_2, O95049): below the threshold; pKd (USH1C_2, Q9Y6N9): below the threshold |
| MERLRVETDV [ARHGEF16, Q5VV41] | below the threshold | below the threshold | below the threshold | below the threshold | below the threshold | below the threshold | below the threshold | below the threshold | below the threshold | below the threshold | below the threshold | below the threshold | below the threshold | below the threshold | below the threshold | below the threshold | below the threshold | below the threshold | below the threshold | 4.06 | pKd (SIPA1L3, O60292): below the threshold; pKd (SNTB2, Q13425): 4.42; pKd (TJP3_2, O95049): below the threshold; pKd (USH1C_2, Q9Y6N9): below the threshold |
| IQREDQETAV [DGKZ, Q13574] | below the threshold | below the threshold | below the threshold | below the threshold | 4.57 | below the threshold | below the threshold | 4.51 | below the threshold | below the threshold | below the threshold | below the threshold | below the threshold | below the threshold | below the threshold | below the threshold | below the threshold | below the threshold | below the threshold | 4.76 | pKd (SIPA1L3, O60292): below the threshold; pKd (SNTB2, Q13425): 5.16; pKd (TJP3_2, O95049): below the threshold; pKd (USH1C_2, Q9Y6N9): below the threshold |
| DPLTPSRSQL [DGKK, Q5KSL6] | below the threshold | below the threshold | below the threshold | below the threshold | below the threshold | below the threshold | below the threshold | below the threshold | below the threshold | below the threshold | below the threshold | below the threshold | below the threshold | below the threshold | 4.05 | below the threshold | below the threshold | below the threshold | below the threshold | below the threshold | pKd (SIPA1L3, O60292): below the threshold; pKd (SNTB2, Q13425): below the threshold; pKd (TJP3_2, O95049): below the threshold; pKd (USH1C_2, Q9Y6N9): below the threshold |
